US20140030295A1

Target: Full-length human SIRT1 (His-tagged) (human) (UniProt Q96EB6)
Assay: cell-based or functional assay

Sequence of Full-length human SIRT1 (His-tagged) (human) (Q96EB6 2-747): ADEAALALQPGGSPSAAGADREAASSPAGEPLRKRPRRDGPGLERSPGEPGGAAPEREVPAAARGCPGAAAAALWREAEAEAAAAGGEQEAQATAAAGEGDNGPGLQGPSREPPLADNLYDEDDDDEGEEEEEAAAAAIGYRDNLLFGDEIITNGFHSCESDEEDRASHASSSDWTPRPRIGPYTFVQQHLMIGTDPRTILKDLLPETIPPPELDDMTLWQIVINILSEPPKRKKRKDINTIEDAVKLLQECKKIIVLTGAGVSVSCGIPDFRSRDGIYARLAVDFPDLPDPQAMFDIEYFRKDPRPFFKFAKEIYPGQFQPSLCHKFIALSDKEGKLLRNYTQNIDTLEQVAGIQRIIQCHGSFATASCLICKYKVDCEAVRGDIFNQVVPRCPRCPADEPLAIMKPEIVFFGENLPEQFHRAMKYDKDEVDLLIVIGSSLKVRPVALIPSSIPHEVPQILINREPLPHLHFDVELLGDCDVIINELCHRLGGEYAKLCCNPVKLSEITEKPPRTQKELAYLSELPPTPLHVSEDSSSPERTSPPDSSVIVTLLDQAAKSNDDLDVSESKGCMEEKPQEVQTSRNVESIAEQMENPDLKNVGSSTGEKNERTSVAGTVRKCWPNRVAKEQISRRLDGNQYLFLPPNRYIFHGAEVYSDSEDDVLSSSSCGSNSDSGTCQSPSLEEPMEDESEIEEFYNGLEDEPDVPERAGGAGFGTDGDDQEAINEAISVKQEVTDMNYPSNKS

synthetic Tat (aa 1-72)
Tat concentration required for half maximal inhibition (IC50) of SIRT1; fluorescent deacetylation assay with acetylated p53 peptide (aa 379-382): 3.5 µM
